Results reported in IntAct's records for PubMed 15171681.

B1: Protein S100-A1 (Homo sapiens), P23297 (parent)
chain: MGSELETAMETLINVFHAHSGKEGDKYKLSKKELKELLQTELSGFLDAQKDVDAVDKVMKELDENGDGEVDFQEYVVLVAALTVACNNFFWENS
partner: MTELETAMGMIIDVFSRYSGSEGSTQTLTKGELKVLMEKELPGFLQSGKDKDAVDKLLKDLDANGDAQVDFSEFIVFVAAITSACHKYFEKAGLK
B2: Protein S100-P (Homo sapiens), P25815 (parent)
chain: B1 partner

Variants of: B1
Settings: with S100P

Row | Variant | effect of a mutation on the interaction
1 | L12H;F16A;F72L | disrupting interaction
2 | F16A | disrupting interaction

Variants of: B2
Settings: with S100A1, P23297

Row | Variant | effect of a mutation on the interaction
3 | MTELETAMGMAADVFSRYSGSEGSTQTLTKGELKVLMEKELPGFLQSGKDKDAVDKLLKDLDANGDAQVDFSEFIVFVAAITSACHKYFEKAGLK [I11A;I12A] | disrupting interaction
4 | MTELETAMGMIIDVASRYSGSEGSTQTLTKGELKVLMEKELPGFLQSGKDKDAVDKLLKDLDANGDAQVDFSEFIVFVAAITSACHKYFEKAGLK [F15A] | disrupting interaction
5 | MTELETAMGMIIDVFSRYSGSEGSTQTLTKGELKVLMEKELPGFLQSGKDKDAVDKLLKDLDANGDAQVDASEFIVFVAAITSACHKYFEKAGLK [F71A] | disrupting interaction
6 | MTELETAMGMIIDVFSRYSGSEGSTQTLTKGELKVLMEKELPGFLQSGKDKDAVDKLLKDLDANGDAQVDFSEGIVFVAAITSACHKYFEKAGLK [F74G] | disrupting interaction
7 | MTELETAMGMIIDVFSRYSGSEGSTQTLTKGELKVLMEKELPGFLQSGKDKDAVDKLLKDLDANGDAQVDFSEVIVFVAAITSACHKYFEKAGLK [F74V] | disrupting interaction
8 | MTELETAMGMIIDVFSRYSGSEGSTQTLTKGELKVLMEKELPGFLQSGKDKDAVDKLLKDLDANGDAQVDFSEFGVFVAAITSACHKYFEKAGLK [I75G] | disrupting interaction
9 | MTELETAMGMIIDVFSRYSGSEGSTQTLTKGELKVLMEKELPGFLQSGKDKDAVDKLLKDLDANGDAQVDFSEFGGFVAAITSACHKYFEKAGLK [I75G;V76G] | decreasing interaction
